Source: patent US12060433B2, “CD73 inhibitor and A2A/A2B adenosine receptor inhibitor combination therapy” (Incyte Corporation, priority 2020, dated 2024)

T1: human CD73 (SEQ ID NO: 70) (Homo sapiens, UniProt P21589)
T1 construct: purchased BPS Bioscience
T1 sequence (P21589 27-549): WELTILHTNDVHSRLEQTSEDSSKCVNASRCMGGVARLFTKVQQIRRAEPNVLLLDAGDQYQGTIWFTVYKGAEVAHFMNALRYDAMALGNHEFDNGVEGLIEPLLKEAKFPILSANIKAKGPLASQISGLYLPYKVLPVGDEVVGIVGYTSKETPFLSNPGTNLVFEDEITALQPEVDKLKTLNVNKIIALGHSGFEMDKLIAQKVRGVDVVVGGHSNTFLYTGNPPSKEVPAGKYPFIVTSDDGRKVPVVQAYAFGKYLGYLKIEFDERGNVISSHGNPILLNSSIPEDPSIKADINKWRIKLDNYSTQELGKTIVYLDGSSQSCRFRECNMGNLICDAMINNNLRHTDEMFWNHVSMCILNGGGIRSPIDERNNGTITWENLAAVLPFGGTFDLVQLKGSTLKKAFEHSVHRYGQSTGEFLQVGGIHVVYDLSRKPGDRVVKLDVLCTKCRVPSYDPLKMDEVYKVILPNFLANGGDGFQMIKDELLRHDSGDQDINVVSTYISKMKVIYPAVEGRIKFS


biological target: T1, human CD73 (SEQ ID NO: 70); assay: SPR (Biacore 8K) binding affinity and kinetics to human CD73; conditions: human CD73, open conformation, 25° C.
Procedure: The SPR running buffer (10 mM HEPES, 150 mM NaCl, 3 mM EDTA and 0.05% v/v Surfactant P20, pH 7.4) was prepared from 10×HBS-EP Buffer (GE Healthcare). Anti-human Fc antibodies (GE Healthcare) were immobilized via amine coupling on all sixteen flow cells of an S series sensor chip CM5 (GE Healthcare). The immobilization levels were ˜9000 RU for all flow cells. The desired capturing level of anti-CD73 antibody was achieved by flowing appropriate concentration of anti-CD73 antibody through the active flow cell of each channel. The non-cleavable ADP analogue APCP (adenosine-5′-(α,β-methylene) diphosphate) with the presence of Zn^2+ can be used to shift the CD73 conformational equilibrium from open towards closed. Therefore, recombinant CD73 was incubated with SPR running buffer in the presence of 100 μM APCP and 10 μM ZnCl2 (closed SPR running buffer) to study the binding of anti-CD73 antibody to the CD73 in the closed conformation. To achieve this, the ABA injection feature in Biacore 8K was used. For open conformation, the ABA injection sequence started with 60 seconds injection of running buffer. Then, CD73 3-fold serial dilution concentration series prepared from CD73 stock (BPS Bioscience) and running buffer were injected for 180 seconds immediately followed by running buffer for 240 seconds. For closed conformation, the normal SPR running buffer was replaced by closed SPR running buffer. Surface was regenerated with 30 seconds injection of 3 M MgCl2. […] Binding affinities and kinetic association and dissociation rate constants to human, cynomolgus, and mouse CD73 in either open or closed conformations are shown in Table 8 below. The results in Table 8 ensure cynomolgus pharmacokinetic data will reflect human pharmacokinetic data.
Binding affinities and kinetic association and dissociation rate constants to human, cynomolgus, and mouse CD73 in either open or closed conformations are shown in Table 9 below.

Molecule | ka [M⁻¹ s⁻¹] | kd [s⁻¹]
CL25_hu_8-4: humanized CL25 antibody, VH and VL in FIG. 1B (antibody, V domains shown) VH: QVQLVQSGAEVKKPGASVKVSCKASGYTFTSYGLSWVRQATGQGLEWMGEIYPGSGNTYYNEKFKGRVTMTRNTSISTAYMELSSLRSEDTAVYYCARYDYLGSSYGFDYWGAGTTVTVSS VL: DIQMTQSPSSLSASVGDRVTITCKASQDVSTAVAWYQQKPGKAPKLLLYSASYRYSGVPSRFSGSGSGTDYTLTISSLQPEDFATYYCQQHYNTPYTFGGGTKLEIK | 770000 | 0.00176
CL25_hu_11-5: humanized CL25 antibody, VH and VL in FIG. 1B (antibody, V domains shown) VH: QVQLVQSGAEVKKPGASVKVSCKASGYTFTSYGLSWVRQATGQGLEWMGEIYPGSGNTYYNEKFKGRVTMTANTSISTAYMELSSLRSEDTAVYYCARYDYLGSSYGFDYWGAGTTVTVSS VL: DIVMTQSPDSLAVSLGERATINCKASQDVSTAVAWYQQKPGQPPKLLIYSASYRYSGVPDRFSGSGSGTDFTLTISSLQAEDVAVYYCQQHYNTPYTFGGGTKLEIK | 799000 | 0.00117
CL25_hu_9-6: humanized CL25 antibody, VH and VL in FIG. 1C (antibody, V domains shown) VH: QVQLVQSGAEVKKPGSSVKVSCKASGYTFTSYGLSWVRQAPGQGLEWMGEIYPGSGNTYYNEKFKGRVTITADESTSTAYMELSSLRSEDTAVYYCARYDYLGSSYGFDYWGAGTTVTVSS VL: AIRMTQSPSSFSASTGDRVTITCKASQDVSTAVAWYQQKPGKAPKLLIYSASYRYSGVPSRFSGSGSGTDFTLTISCLQSEDFATYYCQQHYNTPYTFGGGTKLEIK | 424000 | 0.000953
CL25_hu_8-6: humanized CL25 antibody, VH and VL in FIG. 1C (antibody, V domains shown) VH: QVQLVQSGAEVKKPGASVKVSCKASGYTFTSYGLSWVRQATGQGLEWMGEIYPGSGNTYYNEKFKGRVTMTRNTSISTAYMELSSLRSEDTAVYYCARYDYLGSSYGFDYWGAGTTVTVSS VL: AIRMTQSPSSFSASTGDRVTITCKASQDVSTAVAWYQQKPGKAPKLLIYSASYRYSGVPSRFSGSGSGTDFTLTISCLQSEDFATYYCQQHYNTPYTFGGGTKLEIK | 715000 | 0.00111
CL25_hu_8-5: humanized CL25 antibody, VH and VL in FIG. 1B (antibody, V domains shown) VH: QVQLVQSGAEVKKPGASVKVSCKASGYTFTSYGLSWVRQATGQGLEWMGEIYPGSGNTYYNEKFKGRVTMTRNTSISTAYMELSSLRSEDTAVYYCARYDYLGSSYGFDYWGAGTTVTVSS VL: DIVMTQSPDSLAVSLGERATINCKASQDVSTAVAWYQQKPGQPPKLLIYSASYRYSGVPDRFSGSGSGTDFTLTISSLQAEDVAVYYCQQHYNTPYTFGGGTKLEIK | >1e+06 | 0.000949
CL25_hu_11-6: humanized CL25 antibody, VH and VL in FIG. 1B (antibody, V domains shown) VH: QVQLVQSGAEVKKPGASVKVSCKASGYTFTSYGLSWVRQATGQGLEWMGEIYPGSGNTYYNEKFKGRVTMTANTSISTAYMELSSLRSEDTAVYYCARYDYLGSSYGFDYWGAGTTVTVSS VL: AIRMTQSPSSFSASTGDRVTITCKASQDVSTAVAWYQQKPGKAPKLLIYSASYRYSGVPSRFSGSGSGTDFTLTISCLQSEDFATYYCQQHYNTPYTFGGGTKLEIK | 550000 | 0.00101

The next lines start with the values.

ka [M⁻¹ s⁻¹] | kd [s⁻¹] | Molecule
565000 | 0.00114 | CL25_hu_9-5: humanized CL25 antibody, VH and VL in FIG. 1C (antibody, V domains shown) VH: QVQLVQSGAEVKKPGSSVKVSCKASGYTFTSYGLSWVRQAPGQGLEWMGEIYPGSGNTYYNEKFKGRVTITADESTSTAYMELSSLRSEDTAVYYCARYDYLGSSYGFDYWGAGTTVTVSS VL: DIVMTQSPDSLAVSLGERATINCKASQDVSTAVAWYQQKPGQPPKLLIYSASYRYSGVPDRFSGSGSGTDFTLTISSLQAEDVAVYYCQQHYNTPYTFGGGTKLEIK
887000 | 0.00107 | CL25_hu_10-4: humanized CL25 antibody, VH and VL in FIG. 1A (antibody, V domains shown) VH: EVQLVQSGAEVKKPGESLKISCKGSGYTFTSYGLSWVRQMPGKGLEWMGEIYPGSGNTYYNEKFKGQVTISADKSISTAYLQWSSLKASDTAMYYCARYDYLGSSYGFDYWGAGTTVTVSS VL: DIQMTQSPSSLSASVGDRVTITCKASQDVSTAVAWYQQKPGKAPKLLLYSASYRYSGVPSRFSGSGSGTDYTLTISSLQPEDFATYYCQQHYNTPYTFGGGTKLEIK
524000 | 0.00092 | CL25_hu_10-6: humanized CL25 antibody, VH and VL in FIG. 1A (antibody, V domains shown) VH: EVQLVQSGAEVKKPGESLKISCKGSGYTFTSYGLSWVRQMPGKGLEWMGEIYPGSGNTYYNEKFKGQVTISADKSISTAYLQWSSLKASDTAMYYCARYDYLGSSYGFDYWGAGTTVTVSS VL: AIRMTQSPSSFSASTGDRVTITCKASQDVSTAVAWYQQKPGKAPKLLIYSASYRYSGVPSRFSGSGSGTDFTLTISCLQSEDFATYYCQQHYNTPYTFGGGTKLEIK
624000 | 0.00155 | CL25_hu_11-4: humanized CL25 antibody, VH and VL in FIG. 1A (antibody, V domains shown) VH: QVQLVQSGAEVKKPGASVKVSCKASGYTFTSYGLSWVRQATGQGLEWMGEIYPGSGNTYYNEKFKGRVTMTANTSISTAYMELSSLRSEDTAVYYCARYDYLGSSYGFDYWGAGTTVTVSS VL: DIQMTQSPSSLSASVGDRVTITCKASQDVSTAVAWYQQKPGKAPKLLLYSASYRYSGVPSRFSGSGSGTDYTLTISSLQPEDFATYYCQQHYNTPYTFGGGTKLEIK
382000 | 0.00264 | CL25_hu_9-4: humanized CL25 antibody, VH and VL in FIG. 1C (antibody, V domains shown) VH: QVQLVQSGAEVKKPGSSVKVSCKASGYTFTSYGLSWVRQAPGQGLEWMGEIYPGSGNTYYNEKFKGRVTITADESTSTAYMELSSLRSEDTAVYYCARYDYLGSSYGFDYWGAGTTVTVSS VL: DIQMTQSPSSLSASVGDRVTITCKASQDVSTAVAWYQQKPGKAPKLLLYSASYRYSGVPSRFSGSGSGTDYTLTISSLQPEDFATYYCQQHYNTPYTFGGGTKLEIK
